Publication PMC6698736

How the values were obtained:
[1] = biological target: KacA, wild type, purified alone (Klebsiella pneumoniae); test: SEC-MALS
[2] = biological target: KacA (coexpressed in KacAT);KacT (Klebsiella pneumoniae;Klebsiella …, UniProt A0A0H3GLZ1;A0A0H3GMP0 1-88;1-177, |); test: X-ray crystallography

Work on KacT^Y145F (enzyme) yielded a N, peak α (KacT per KacA (8:8)) [1] of 1 and a N, peak β (KacT per KacA (2:4)) [1] of 0.5.

For “KacA, wild type, purified alone (natural protein)”, the stoichiometry N [1] was 2.

B1: 27-bp kacAT operator duplex (dsDNA)
DNA 1: AAATGTACGGTTATTAACCGTACATGA
DNA 2: TCATGTACGGTTAATAACCGTACATTT
B1: binds [2].
